# B1: vacuole-related protein 17 (Saccharomyces cerevisiae), P25591 (parent)
# chain: MATQALEDITERLLIRSQEAILQLDLWIQRQQRSSICQTTDQESLDKLSQQYNQYMSQLNSLYVRSESVRDKLSKEQQRRLITEDNEHQRIEDLVREFQDITLRLNELATVPNEAPNDSPQSQSTRSSLGSFQPRPLKIIERQRLCMVTPSKPPKKSVGFNPINEVDCPSKTNSLPCSPKKQPARNRTLRAAKSHDTGLNKSKKPSSSDTYESFFKNRQRLSLTFFDEMDDEDFDSDQDTIILPNISTPPHVGVTAKGAEFEPLRRYNSHESILSNKPAPSKSLNLGSFSASFFRPSNPTFGTSISNVQVNCHPTVAATMAPSRNGPRISSSKALLSSFIARSDTHTVKENNTNLKHASFMDKFNSSLSTISESFQSKRGRKNKGMNEERISNHNVAQEQKNNMDISVSIEELQDALNTELLF
# B2: Myosin-2 (Saccharomyces cerevisiae), P19524 (parent)
# chain: MSFEVGTRCWYPHKELGWIGAEVIKNEFNDGKYHLELQLEDDEIVSVDTKDLNNDKDQSLPLLRNPPILEATEDLTSLSYLNEPAVLHAIKQRYSQLNIYTYSGIVLIATNPFDRVDQLYTQDMIQAYAGKRRGELEPHLFAIAEEAYRLMKNDKQNQTIVVSGESGAGKTVSAKYIMRYFASVEEENSATVQHQVEMSETEQKILATNPIMEAFGNAKTTRNDNSSRFGKYLEILFDKDTSIIGARIRTYLLERSRLVYQPPIERNYHIFYQLMAGLPAQTKEELHLTDASDYFYMNQGGDTKINGIDDAKEYKITVDALTLVGITKETQHQIFKILAALLHIGNIEIKKTRNDASLSADEPNLKLACELLGIDAYNFAKWVTKKQIITRSEKIVSNLNYSQALVAKDSVAKFIYSALFDWLVENINTVLCNPAVNDQISSFIGVLDIYGFEHFEKNSFEQFCINYANEKLQQEFNQHVFKLEQEEYVKEEIEWSFIEFNDNQPCIDLIENKLGILSLLDEESRLPAGSDESWTQKLYQTLDKSPTNKVFSKPRFGQTKFIVSHYALDVAYDVEGFIEKNRDTVSDGHLEVLKASTNETLINILEGLEKAAKKLEEAKKLELEQAGSKKPGPIRTVNRKPTLGSMFKQSLIELMNTINSTNVHYIRCIKPNADKEAWQFDNLMVLSQLRACGVLETIRISCAGFPSRWTFEEFVLRYYILIPHEQWDLIFKKKETTEEDIISVVKMILDATVKDKSKYQIGNTKIFFKAGMLAYLEKLRSNKMHNSIVMIQKKIRAKYYRKQYLQISQAIKYLQNNIKGFIIRQRVNDEMKVNCATLLQAAYRGHSIRANVFSVLRTITNLQKKIRKELKQRQLKQEHEYNAAVTIQSKVRTFEPRSRFLRTKKDTVVVQSLIRRRAAQRKLKQLKADAKSVNHLKEVSYKLENKVIELTQNLASKVKENKEMTERIKELQVQVEESAKLQETLENMKKEHLIDIDNQKSKDMELQKTIENNLQSTEQTLKDAQLELEDMVKQHDELKEESKKQLEELEQTKKTLVEYQTLNGDLQNEVKSLKEEIARLQTAMSLGTVTTSVLPQTPLKDVMGGGASNFNNMMLENSDLSPNDLNLKSRSTPSSGNNHIDSLSVDRENGVNATQINEELYRLLEDTEILNQEITEGLLKGFEVPDAGVAIQLSKRDVVYPARILIIVLSEMWRFGLTKQSESFLAQVLTTIQKVVTQLKGNDLIPSGVFWLANVRELYSFVVFALNSILTEETFKNGMTDEEYKEYVSLVTELKDDFEALSYNIYNIWLKKLQKQLQKKAINAVVISESLPGFSAGETSGFLNKIFANTEEYTMDDILTFFNSIYWCMKSFHIENEVFHAVVTTLLNYVDAICFNELIMKRNFLSWKRGLQLNYNVTRLEEWCKTHGLTDGTECLQHLIQTAKLLQVRKYTIEDIDILRGICYSLTPAQLQKLISQYQVADYESPIPQEILRYVADIVKKEAALSSSGNDSKGHEHSSSIFITPETGPFTDPFSLIKTRKFDQVEAYIPAWLSLPSTKRIVDLVAQQVVQDGH
# partner: B1 chain
# Variants of: B1
# Details: with myo2_yeast MYO2, P19524
row,effect of a mutation on the interaction,Variant
1,with no effect,MATQALEDITERLLIRSQEAILQLDLWIQRQQRSSICQTTDQESLDKLSQQYNQYMSQLNSLYVRSESVRDKLSKEQQRRLITEDNEHQRIEDLVREFQDITLRLNELATVPNEAPNDSPQSQSTRSSLGSFQPRPLKIVERQRLCMVTPSKPPKKSVGFNPINEVDCPSKTNSLPCSPKKQPARNRTLRAAKSHDTGLNKSKKPSSSDTYESFFKNRQRLSLTFFDEMDDEDFDSDQDTIILPNISTPPHVGVTAKGAEFEPLRRYNSHESILSNKPAPSKSLNLGSFSASFFRPSNPTFGTSISNVQVNCHPTVAATMAPSRNGPRISSSKALLSSFIARSDTHTVKENNTNLKHASFMDKFNSSLSTISESFQSKRGRKNKGMNEERISNHNVAQEQKNNMDISVSIEELQDALNTELLF [I140V]

# Variants of: B2
# Details: with vac17_yeast VAC17, P25591
row,Variant,effect of a mutation on the interaction
1,D1297N,disrupting interaction strength
2,G1248D,disrupting interaction strength
3,N1304S,disrupting interaction strength

# Further lines, results first:
row,effect of a mutation on the interaction,Variant
1,disrupting interaction strength,L1301P
2,disrupting interaction strength,N1304D

# Variants of: B2
# Details: with vac17_yeast VAC17, P25591
# Remark: another data set of the same source
row,effect of a mutation on the interaction,Variant
1,decreasing interaction strength,G1248N

# Variants of: B2
# Details: with vac17_yeast VAC17, P25591
# Remark: another data set of the same source
row,effect of a mutation on the interaction,Variant
1,decreasing interaction strength,G1248D

# — IntAct's records for PubMed 12642614
